Data on five molecules can be found in patent US20040171074A1, “Structures of substrate binding pockets of SCF complexes” (MOUNT SINAI HOSPITAL, priority 2002, published 2004).

Numbering of substitutions follows the chain as printed. Numbers in names are those of the source. Entries after “also recorded” stand apart in the source; their conditions may differ.

Experiment [1] deals with cdc4Δ strain overexpressing SIC1. Kind of experiment: sensitivity to SIC1 dosage: GAL1-SIC1 overexpression in strains bearing CDC4 alleles. In kind it is cell-based, yeast. To be noted: for gal Sic1T33V: GAL1-SIC1 T33V (partially stabilized Sic1); for gal Sic1T33V / gal Sic1T45A / gal Sic1 wt: galactose, 2 days at 30° C.; for gal Sic1T45A: GAL1-SIC1 T45A; for gal Sic1 wt: GAL1-SIC1 wild type; for viability / sensitivity to increased SIC1 dosage: Sic1 wt or stabilized Sic1(T33V) or Sic1(T45A) over-expressed under a galactose promoter. As to the method:
(§1) Mutational analysis of the CPD binding surface. Mutants were tested in vitro by ability to bind phosphorylated Sic1 and then captured onto GST-Skp1/Cdc4 resin and detected with anti-sic1 antibody. Mutants were tested in vivo by ability to degrade GAL1-SIC1 or various phosphorylation mutants. Sites are as follows: 3=Thr 33, Thr 45, Ser 76; 4=Thr 5, Thr 33, Thr 45, Ser 76; 5=Thr 2, Thr 5, Thr 33, Thr 45, Ser 76; 6=Thr 2, Thr 5, Thr 33, Thr 45, Ser 69, Ser 76; 7=Thr 2, Thr 5, Thr 33, Thr 45, Ser 69, Ser 76, Ser 80. GAL1-SIC1 plasmids were transformed into a cdc4Δ strain containing a copy of CDC4 on a TRP1 ARS CEN plasmid. Strains were incubated for 2 days at 30° C.
(§2) All mutants on a TRP1 ARS CEN plasmid were transformed into a cdc4Δ strain (MT 1259) containing a wildtype copy of CDC4 on a URA3 ARS CEN plasmid. Cells were plated on either Trp^−Ura^− or 5-FOA medium for 2 days at 30° C. Viable cells on 5-FOA were grown in Trp medium and transformed with either wild type GAL1-SIC1, GAL1-SIC T45A, or GAL1-SIC T33V on a LEU2 ARS CEN pasmid. Cells were then plated on Leu- Trp-plates containing either glucose or galactose and incubated for 2 days at 30° C.
Since the cell viability assay nay be masking subtle functional roles for the conserved Cdc4 residues, function was assayed in vivo under more stringent conditions in which Sic1 wt or the stabilized mutants, Sic1 (T33V) or Sic1(T45A) are over-expressed under a galactose promoter. This should amplify defects in cdc4 function. Under these conditions, Trp 717, Tyr 548 and the double mutant K404D/R443D are lethal showing that these residues are in fact important for functions
(§3) Cdc4 functional assays. CDC4 mutant alleles were assessed for complementation of a cdc4A strain in a plasmid shuffle assay (Nash et al., 2001). Sensitivity to SIC1 dosage was determined by transformation with pMT837 (GAL1-SIC1) or pMT767 (GAL1-SIC1^T33V) and plating on glucose medium or galactose medium. For in vitro capture of phospho-Sic1 by Cdc4, 0.5 μg of bacterially-expressed ^HIS6Sic1 was phosphorylated with immobilized Cln2-Cdc28 kinase from baculovirus-infected Sf9 cells and then incubated with 1 μg of immobilized wild type or mutant Cdc4^263-744-GST-Skp1, at 4° C. for 1 hr, washed 4 times and visualized by anti-Sic1 immunoblot. For isoelectric focusing (IEF)-2D gel analyses, an evenly distributed pool of phospho-Sic1 isoforms was generated by combining different time points in a Sic1 phosphorylation reaction. 2.5 μg of the phospho-Sic1 pool was bound to 5 μg of immobilized wild type or mutant Cdc4^1-744-GST-Skp1. Captured isoforms were separated by denaturing IEF-2D gel electrophoresis using pH3-10NL Immobiline gel strips (Amersham) and visualized by anti-Sic1 immunoblot. Alternatively, the pool of phospho-Sic1 isoforms was incubated in solution with a ubiquitination reaction mix containing ATP, ubiquitin, yeast E1, Cdc34 and either wild type or mutant SCF^Cdc4 complex, composed of a 1:1 ratio of bacterial Cdc4-GST-Skp1 and insect cell-produced Cdc53-Rbx1, at 30° C. for 1 h as previously described (Nash et al., 2001).

The next experiment concerns phospho-Sic1. Kind of experiment: P-Sic1 pull down: in vitro capture of phospho-Sic1 on immobilized wild type or mutant Cdc4-GST-Skp1, anti-Sic1 immunoblot. To be noted: Sic1 phosphorylated with Cln2-Cdc28, captured onto GST-Skp1/Cdc4 resin, anti-Sic1 detection. It is filed as binding, yeast. As to the method: as §1
Bacterially expressed His6-Sic1 was phosphorylated with Cln2-Cdc28 kinase purified from baculovirus infected Sf9 cells as described before (Nature paper). 1 ug of WT or mutant Cdc4-GST-Skp1, immoblized on GSH-Sepharose resin, was incubated with 0.5 ug phospho-Sic1 at 4 C for 1 h and washed 4 times. Captured complexes were resolved on SDS-PAGE and Sic1 visualized by anti-Sic1 Western blotting and ECL. For IEF-2D analysis, several Sic1 phosphorylation reactions were carried out for different time periods to obtain a spectrum of Sic1 that were phosphorylated at different numbers of its nine CDK sites. This pool of phospho-Sic1 (2.5 ug) was incubated with 5 μg of WT or mutant Cdc4-GST-Skp1 as described above. Different phosphorylation states of Sic1 were separated by denaturing isoelectric focusing (IEF)-2D gel electrophoresis and visualized by anti-Sic1 Western blotting and ECL. IEF was performed using pH 3-10NL Immobiline gel strips and IPGphore IEF system (Amersham pharmacia).
as §3
In general terms: A western blot detects proteins with antibodies after separation by electrophoresis.

The test system of the next experiment is cdc4Δ strain. Kind of experiment: plasmid shuffle assay: complementation of a cdc4Δ strain by CDC4 alleles. In kind it is cell-based, yeast. To be noted: viability of cdc4Δ strain on 5-FOA, 2 days at 30° C. On the procedure: as §2, §3

B1: R443A: mutant cdc4 polypeptide (protein)
chain: MGSFPLAEFPLRDIPVPYSYRVSGGIASSGSVTALVTAAGTHRNSSTAKTVETEDGEEDIDEYQRKRAAGSGESTPERSDFKRVKHDNHKTLHPVNLQNTGAASVDNDGLHNLTDISNDAEKLLMSVDDGSAAPSTLSVNMGVASHNVAAPTTVNAATITGSDVSNNVNSATINNPMEEGALPLSPTASSPGTTTPLAKTTKTINNNNNIADLIESKDSIISPEYLSDEIFSAINNNLPHAYFKNLLFRLVANMDRSELSDLGTLIKDNLKRDLITSLPFEISLKIFNYLQFEDIINSLGVSQNWNKIIRKSTSLWKKLLISENFVSPKGFNSLNLKLSQKYPKLSQQDRLRLSFLENIFILKNWYNPKFVPQRTTLRGHMTSVITCLQFEDNYVITGADDKMIRVYDSINKKFLLQLSGHDGGVWALKYAHGGILVSGSTDATVRVWDIKKGCCTHVFKGHNSTVRCLDIVEYKNIKYIVTGSRDNTLHVWKLPKESSVPDHGEEHDYPLVFHTPEENPYFVGVLRGHMASVRTVSGHGNIVVSGSYDNTLIVWDVAQMKCLYILSGHTDRIYSTIYDHERKRCISASMDTTIRIWDLENIWNNGECSYATNSASPCAKILGAMYTLQGHTALVGLLRLSDKFLVSAAADGSIRGWDANDYSRKFSYHHTNLSAITTFYVSDNILVSGSENQFNIYNLRSGKLVHANILKDADQIWSVNFKGKTLVAAVEKDGQSFLEILDFSKASKINYVSNPVNSSSSSLESISTSLGLTRTTIIP
B1: in experiment [1], the “gal Sic1T33V” value is listed as “alive”, the “gal Sic1T45A” value is “dead”, the “gal Sic1 wt” value was “alive” and the “viability / sensitivity to increased SIC1 dosage” value was “indistinguishable from wild type”. In addition, the P-Sic1 pull down result in the experiment on phospho-Sic1 is reported as “bind”. For the same molecule, in the experiment with phospho-Sic1 (listed as Arg443Ala), the P-Sic1 pull down entry is listed as “fully competent; also recorded: indistinguishable from wild type”. Besides, the shuffle entry with cdc4Δ strain is “alive”. The shuffle entry with cdc4Δ strain (listed as Arg443Ala) is “viable; also recorded: indistinguishable from wild type”.

B2: K402A: mutant cdc4 polypeptide (protein)
chain: B1 chain with K402A, A443R
Turning to B2, in experiment [1], the “gal Sic1T33V” value is reported as “alive”, the “gal Sic1T45A” value is “dead”, the “gal Sic1 wt” value is “alive” and the “viability / sensitivity to increased SIC1 dosage” value is on record as “indistinguishable from wild type”. In the experiment on phospho-Sic1, the P-Sic1 pull down entry is given as “bind”. In addition, in the experiment with phospho-Sic1 (listed as Lys402Ala), the P-Sic1 pull down result is “fully competent; also recorded: indistinguishable from wild type”. In the experiment with cdc4Δ strain, the shuffle result is “alive”. Further, in the experiment with cdc4Δ strain (listed as Lys402Ala), the shuffle result was “viable; also recorded: indistinguishable from wild type”.

B3: Y574F: mutant cdc4 polypeptide (protein)
chain: B1 chain with A443R, Y574F
Take B3: in experiment [1], the “gal Sic1T33V” value was “alive”. The “gal Sic1T45A” value in experiment [1] was “dead”. In experiment [1], the “gal Sic1 wt” value is “alive”. Moreover, the “viability / sensitivity to increased SIC1 dosage” value in experiment [1] is recorded as “indistinguishable from wild type”. Further, the P-Sic1 pull down entry in the experiment on phospho-Sic1 is given as “bind”; in the experiment on phospho-Sic1 (listed as Tyr574Ala), “fully competent”; in the experiment on phospho-Sic1 (listed as Tyr574Phe), “indistinguishable from wild type”. The shuffle result with cdc4Δ strain is “alive”; with cdc4Δ strain (listed as Tyr574Ala), “viable”; in the experiment with cdc4Δ strain (listed as Tyr574Phe), “indistinguishable from wild type”.

B4: V384N: mutant cdc4 polypeptide (protein)
chain: B1 chain with V384N, A443R
Consider B4, for which the “gal Sic1T33V” value in experiment [1] is “alive”. Moreover, the “gal Sic1T45A” value in experiment [1] is on record as “dead”. Moreover, the “gal Sic1 wt” value in experiment [1] is recorded as “alive”. Further, the “viability / sensitivity to increased SIC1 dosage” value in experiment [1] is reported as “indistinguishable from wild type”. The P-Sic1 pull down result was “bind” in the experiment on phospho-Sic1, “fully competent” with phospho-Sic1 (listed as Val384) and “indistinguishable from wild type” in the experiment on phospho-Sic1 (listed as Val384Asn). The shuffle entry in the experiment with cdc4Δ strain is reported as “alive”; in the experiment with cdc4Δ strain (listed as Val384) it was “viable”; in the experiment with cdc4Δ strain (listed as Val384Asn), “indistinguishable from wild type”.

B5: W717N: mutant cdc4 polypeptide (protein)
chain: B1 chain with A443R, W717N
On to B5, for which the “gal Sic1T33V” value in experiment [1] is on record as “dead”; in experiment [1] (listed as Trp717Asn) it was “conferred sensitivity”. Besides, the “gal Sic1T45A” value in experiment [1] is reported as “dead”. For the same molecule, in experiment [1], the “gal Sic1 wt” value is on record as “alive”. Also, the “viability / sensitivity to increased SIC1 dosage” value in experiment [1] is “lethal”. Further, the P-Sic1 pull down entry in the experiment on phospho-Sic1 is reported as “bind”; in the experiment on phospho-Sic1 (listed as Trp717) it was “fully competent”; in the experiment with phospho-Sic1 (listed as Trp717Asn) it was “did not overtly affect”. In addition, the shuffle result in the experiment on cdc4Δ strain is listed as “alive”; in the experiment on cdc4Δ strain (listed as Trp717), “viable”.
